Positions count from the first letter of the chain named. Names and notes keep the numbering of the source. “Also recorded” adds a separate entry of the source.
Assays:
[1] = GDH enzymatic assay with NAD^+ as cofactor; format: biochemical; settings: for Kcat / Km: cofactor NAD^+; for decrease of catalytic efficiency on NAD^+: versus wild type
Description: (§1) GDH enzymatic assays. The GDH activity was measured as described in Hilt et al. (Biochimica et biophysica acta 1076(2):298-304 (1991)). The reactions were started by adding the purified protein to the assay mixture containing 35 mM Tris-HCl buffer (pH 8.0), 3 mM NAD^+, NADP^+ or NMN^+ and 140 mM glucose. The absorbance variation at 340 nm was detected by a spectrophotometer at 25° C.

[2] = GDH enzymatic assay with NADP^+ as cofactor; format: biochemical; settings: for Kcat / Km: cofactor NADP^+; for decrease of catalytic efficiency on NADP^+: versus wild type
Description: as §1

[3] = GDH enzymatic assay with NMN^+ as cofactor; format: biochemical; settings: for Kcat / Km: cofactor NMN^+; for overall specificity switch towards NMN^+ from NADP^+ / overall specificity switch towards NMN^+ from NAD^+: compared to wild type
Description: as §1

[4] = Protein expression levels of GDH variants; set-up: species or system Escherichia coli; settings: expressed in E. coli
Description: Proteins were purified as 6×His tag fusion at the N-terminus. E. coli BL21 (DE3) with plasmids were inoculated into LB medium with 200 mg L^−1 ampicillin. Cells were induced with 0.5 mM IPTG and expressed for 24 hours at 30° C. with shaking at 250 rpm. BM3 cytochrome P450 was extracted with the EMD Millipore™ BugBuste Plus Lysonase Kit and purified using the HisPur™ Ni-NTA Superflow Purification System according to the manufacturer's instructions. Other proteins were purified using His-Spin Protein Miniprep kit (Zymo Research Corporation, CA). The purified proteins were quantified by Bradford assay.

[5] = XenA-GDH coupled cycling biotransformation of ketoisophorone to levodione; format: biochemical
Description: (§2) Coupled enzymatic biotransformation. All biotransformation reactions were performed in buffer A at 30° C. for 24 hours. Reaction buffer A, modified from that disclosed in Chaparro-Riggers et al., Advanced Synthesis & Catalysis 349(8-9):1521-1531 (2007)), contained 200 mM potassium phosphate buffer (pH 7.5), 1 M NaCl, 300 mM D-glucose, 6 mM NMN^+ (or NADP^+ as the positive control), and substrates. All assays were performed in triplicate, with no proteins or no cofactors added as negative controls. The protein loading for GDH variants was kept at 0.33 mg mL^−1 or 11.7 μM. The various enzymes for biotransformation reactions were added at the concentration of 0.75 mg mL^−1.
For XenA-GDH coupled cycling assays, the substrates ketoisophorone, citral, or trans-2-hexen-1-al were added at 33 mM, 10 mM, or 50 mM, respectively. For the OYE3-GDH coupled cycling assays, the substrate 4-phenyl-3-butyn-2-one was added at 5 mM. At various time points over 24 hours, 100 μL samples were taken and extracted with 100 μL ethyl acetate. Conversion was determined via GC-FID with octanol as an internal standard (see below). For NfsB-GDH coupled cycling assays, 2 mM nitrofurazone was used as the substrate. Nitrofurazone conversion was measured spectroscopically at 400 nm and quantification was performed using a standard curve. The initial levels of the above-mentioned substrates were mainly determined by their solubility in the assay buffer. For BM3-GDH coupled cycling assays, 50 μM cytochrome c (C2506 Sigma) was used as the substrate. The reduction of cytochrome c was measured spectroscopically at 550 nm. and the quantification was performed using extinction coefficient ε550 of 21.1 mM^−1 cm^−1.
Coupled cycling conditions: All biotransformation reactions were performed in buffer A at 30° C. for 24 hours. Reaction buffer A contained 200 mM potassium phosphate buffer (pH 7.5), 1 M NaCl, 300 mM D-glucose, 6 mM NMN^+. Substrate ketoisophorone was added at 5 g/L. At various time points over 24 hours, 100 μL samples were taken and extracted with 100 μL ethyl acetate. Conversion was determined via GC-FID with octanol as an internal standard (see below).

[6] = GDH total turnover number (TTN) determination; format: biochemical; settings: NMN^+, GDH 0.47 μM, 33 mM ketoisophorone, 96 hours
Description: GDH Total Turnover Number (TTN) Determination. Total turnover number (TTN) was determined by the number of moles of product formed divided by the moles of purified GDH added. The assays were performed in reaction buffer A, as shown above, at 30° C. Ketoisophorone (33 mM) was used as the substrate. The reaction was started by spiking purified proteins (0.0132 mg mL^−1 or 0.47 μM for GDH, 0.75 mg mL^−1 for XenA). Samples were taken every 12 hours for 96 hours. The extraction and GC-FID analysis were performed using a similar method as mentioned above.

[7] = XenA-GDH coupled cycling assay, citral; format: biochemical; settings: 10 mM citral, 24 hours, NMN^+
Description: as §2
(§3) For XenA-GDH coupled cycling assays, the substrates ketoisophorone, citral, or trans-2-hexen-1-al were added at 33 mM, 10 mM, or 50 mM, respectively. […] Conversion was determined via GC-FID with octanol as an internal standard (see below). […] Nitrofurazone conversion was measured spectroscopically at 400 nm and quantification was performed using a standard curve. The initial levels of the above-mentioned substrates were mainly determined by their solubility in the assay buffer. […] The reduction of cytochrome c was measured spectroscopically at 550 nm. and the quantification was performed using extinction coefficient ε550 of 21.1 mM^−1 cm^−1.

[8] = XenA-GDH coupled cycling assay, trans-2-hexen-1-al; format: biochemical; settings: 50 mM, 24 hours, NMN^+
Description: as §2, §3

[9] = OYE3-GDH coupled cycling assay; format: biochemical; settings: OYE3, NMN^+
Description: as §2, §3

[10] = NfsB-GDH coupled cycling assay; format: biochemical; settings: NMN^+
Description: as §2, §3

cytochrome c = assay: BM3-GDH coupled cycling assay; format: biochemical; settings: BM3 W1046S, NMNH generated in situ
Description: as §2, §3

[11] = XenA activity with different cofactors; format: biochemical; settings: ketoisophorone as substrate
Description: Enzyme assay conditions: The enzymatic buffer contained 200 mM phosphate buffer (pH 7.5), 5 mM ketoisophorone, and 0.2 mM NADPH, NADH, or NMNH, and appropriate amount of purified XenA protein. The initial reaction rate was quantified by absorbance variation at 340 nm using a spectrophotometer at 37° C. Reactions with no ketoisophorone added were performed to quantify the non-specific reaction rate. The net reaction rate as shown in FIG. 13 was calculated by subtracting the non-specific reaction rate from the total reaction rate. For generating NMNH, a microcentrifuge tube (2 mL) containing 35 mM Tris-HCl (pH 8.0), 4 mM NMN^+, 1 M NaCl and 140 mM glucose, was incubated for ˜3 hr at 30° C. with purified Bs GDH I195R. An aliquot of this reaction system was taken to measure the accumulation of NMNH by reading absorbance at 340 nm. The proteins in the reaction were removed by filtering the mixture with centrifugal filter units (Amicon Ultra-0.5 Centrifugal Filter Units, Millipore, USA). The solvent was evaporated, and the residue was collected to give NMNH as a yellowish oil.

E. coli strain MX103 = assay: E. coli growth with NMN^+-dependent glycolysis; format: cell-based, Escherichia coli
E. coli whole cells = assay: NMN^+-dependent whole-cell biotransformation of KIP; format: cell-based, Escherichia coli
Description: NMN^+-dependent whole-cell biotransformation. One biotransformation plasmid expressing XenA, LVR, or ADH with a GDH (selected from pLZ217-pLZ225) and pSM104 containing the glucose transport facilitator were transformed into strain MX102 by electroporation. 4 mL seed cultures of 2×YT media with appropriate antibiotics, 0.1 mM IPTG, and 0.2% (wt/v) glucose were cultured at 30° C. while shaking at 250 rpm for 16 hours. 0.5% (v/v) seed cultures were used to inoculate 150 mL of 2×YT media with appropriate antibiotics, A5 trace metals with cobalt, and 0.5 mM IPTG in a 250 mL baffled shake flask and cultured at 30° C. at 250 rpm. When an OD600˜0.4 was reached, protein expression was induced with 0.1% (w/v) arabinose and cultured for an additional 8 hours at 30° C. while shaking at 250 rpm. Cells were harvested by centrifugation for 15 minutes at 20° C. at 3750 rpm. The supernatant was discarded. Nutrients from the media were removed by washing the pelleted cells 3 times with 50 mL of 100 mM potassium phosphate at pH 7.5. Cells were resuspended to an OD600 of 100 in assay buffer consisting of 100 mM potassium phosphate buffer at pH 7.5, 200 mM D-glucose, 0.5% arabinose, and 0.5 mM IPTG. 1 mL of resuspended cells were added to 20 mL of identical assay buffer in a 250 mL unbaffled, screw-cap shake flask. KIP was spiked into the flask to 5 g/L to initiate the reaction. Flask caps were secured tightly to prevent evaporative loss of substrate or products. Flasks were incubated at 30° C. while shaking at 250 rpm for 48 hours. After 48 hours, 1 mL of culture was pelleted, and the supernatant was used for analysis. 200 μL of supernatant was extracted with an equal volume of ethyl acetate containing 200 mg/L octanol as an internal standard, and the samples were analyzed by gas chromatography. For samples expressing all three conversion enzymes (XenA, LVR, and ADH) on the same vector (pLZ226), the Bs GDH was expressed individually on a separate vector (pSM106, pSM107, or pSM108). The Zm glf gene was also expressed in the system (pSM110).

B1: I195R-A93K-Y39Q: Bs GDH with I195R, A93K, Y39Q substitutions (SEQ ID NO:6) (protein)
chain: MYPDLKGKVVAITGAASGLGKAMAIRFGKEQAKVVINYQSNKQDPNEVKEEVIKAGGEAVVVQGDVTKEEDVKNIVQTAIKEFGTLDIMINNKGLENPVPSHEMPLKDWDKVIGTNLTGAFLGSREAIKYFVENDIKGNVINMSSVHEVIPWPLFVHYAASKGGIKLMTETLALEYAPKGIRVNNIGPGAINTPRNAEKFADPKQKADVESMIPMGYIGEPEEIAAVAAWLASKEASYVTGITLFADGGMTQYPSFQAGRG
modifications: I195R A93K Y39Q mutant GDH coding sequence
Kcat [1]: 0.41 ± 0.026 s⁻¹
Km [1]: 3.7 ± 0.93 mM
decrease of catalytic efficiency on NAD^+ [1]: 38 fold
decrease of catalytic efficiency on NAD^+ ([1]; listed as GDH Triple): 1,600 fold
Kcat [2]: 4.4 ± 0.034 s⁻¹
Km [2]: 0.61 ± 0.15 mM
decrease of catalytic efficiency on NADP^+ [2]: 1,600 fold
decrease of catalytic efficiency on NADP^+ ([2]; listed as GDH Triple): 38 fold
increase in catalytic efficiency over the wild-type enzyme towards NMN^+ [3]: 1,000 fold
improvement in catalytic efficiency over I195R ([3]; NMN^+): 4 fold
Kcat [3]: 3.1 ± 0.037 s⁻¹
Km [3]: 6.1 ± 0.83 mM
overall specificity switch towards NMN^+ from NADP^+ [3]: 1,600,000 fold
overall specificity switch towards NMN^+ from NAD^+ [3]: 38,000 fold
overall specificity switch towards NMN^+ from NADP^+ ([3]; listed as GDH Triple): 38,000 fold
overall specificity switch towards NMN^+ from NAD^+ ([3]; listed as GDH Triple): 1,600,000 fold
Expression level [4]: 25.37 μg protein/ml culture
initial productivity of levodione ([5]; NMN^+ as cycling cofactor, XenA in excess, GDH 11.7 μM): ~1.15 µM/s
initial turnover frequency ([5]; NMN^+, Bs GDH loading 11.7 μM): ~0.10 s⁻¹
improvement of NMN^+-dependent productivity ([5]; versus wild type Bs GDH): 22 fold
total turnover number (TTN) [6]: 39,000
conversion of citral [7]: ~76%
conversion of trans-2-hexen-1-al [8]: ~49%
conversion of 4-phenyl-3-butyne-2-one [9]: > 99%
conversion of nitrofurazone [10]: ~92%
conversion (reduction) of cytochrome c (cytochrome c): > 99%

B2: XenA: enoate reductase XenA from Pseudomonas putida, wild type (protein, listed as Pseudomonas putida)
chain: MSALFEPYTLKDVTLRNRIAIPPMCQYMAEDGLINDWHQVHYASMARGGAGLLVVEATAVAPEGRITPGCAGIWSDAHAQAFVPVVQAIKAAGSVPGIQIAHAGRKASANRPWEGDDHIGADDARGWETIAPSAIAFGAHLPNVPRAMTLDDIARVKQDFVDAARRARDAGFEWIELHFAHGYLGQSFFSEHSNKRTDAYGGSFDNRSRFLLETLAAVREVWPENLPLTARFGVLEYDGRDEQTLEESIELARRFKAGGLDLLSVSVGFTIPETNIPWGPAFMGPIAERVRREAKLPVTSAWGFGTPQLAEAALQANQLDLVSVGRAHLADPHWAYFAAKELGVEKASWTLPAPYAHWLERYR
activity with NMNH as reducing cofactor [11]: comparable activity to the natural cofactors NADH and NADPH; also recorded: comparable activity to the natural cofactors NADPH and NADH

B3: I195R-A93K-Y39Q-S17E: Bs GDH with I195R, A93K, Y39Q, S17E substitutions (SEQ ID NO:7) (protein)
chain: B1 chain with S17E
modifications: I195R A93K Y39Q S17E mutant GDH coding sequence
Kcat [1]: 0.025 ± 0.002 s⁻¹
Km [1]: 6.5 mM
drop of catalytic efficiency for NAD^+ upon introducing S17E ([1]; compared with GDH Triple): 220 fold
Kcat [2]: 0.022 ± 0.013 s⁻¹
Km [2]: 2 mM
drop of catalytic efficiency for NADP^+ upon introducing S17E ([2]; compared with GDH Triple): 890 fold
change of NMN^+-dependent catalytic efficiency compared with GDH Triple [3]: modest reduction
Kcat [3]: 1.21 ± 0.09 s⁻¹
Km [3]: 5.9 ± 1 mM
overall specificity switch towards NMN^+ from NADP^+ [3]: ~1×10^7 fold
overall specificity switch towards NMN^+ from NAD^+ [3]: ~2×10^7 fold
cell growth on glucose (E. coli strain MX103; minimal glucose medium, GDH without XenA): did not grow
cell growth on glucose (E. coli strain MX103; minimal medium, glucose sole carbon source, GDH with XenA, listed as GDH Ortho): able to grow; also recorded: supported E. coli growth on glucose
levodione fraction of total products by mass (E. coli whole cells; XenA, LVR and ADH over-expressed simultaneously): ~92%
LVR- and ADH-catalyzed formation of phorenol or HIP (E. coli whole cells; resting cells with LVR or ADH): minimal levels of phorenol or HIP
levodione produced (E. coli whole cells; resting cells with XenA, 5 g/L KIP, glucose co-substrate): ~1 g/L

From patent US12618050B2, “Engineered polypeptides that exhibit increased catalytic efficiency for unnatural cofactors and uses thereof” (The Regents of the University of California, priority 2018, dated 2026)
